The series concerns Escherichia coli TOP10. Briefly: shrunken log2 fold change of peptide-encoding DNA abundance (4.5 h post-induction vs induction); higher = less antimicrobial activity (less host growth inhibition). Particulars: time post-induction: 4.5 h; library: site-saturation at positions 5, 18, 19, 20.
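Note: peptides expressed intracellularly from a pBAD plasmid library in pooled LB shake-flask culture, induced with 0.3% L-arabinose, DNA abundance read by NGS, three biological replicates, DESeq2 with apeglm shrinkage.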

Turning to RRIRARPPRLPRPRPRPLCVPRP, the “shrunken log2 fold change” value was 0.183. The figure for RRIRNRPPRLPRPRPRPICTPRP is -0.122; for RRIRYRPPRLPRPRPRPQTAPRP it is -0.0183.

Consider RRIRRRPPRLPRPRPRPPYHPRP, for which the “shrunken log2 fold change” value amounted to 0.124. As to RRIRGRPPRLPRPRPRPIEYPRP, the “shrunken log2 fold change” value worked out at 0.0165. The figure for RRIRSRPPRLPRPRPRPGNNPRP is -0.354; for RRIRMRPPRLPRPRPRPPGWPRP it is 1.25. Regarding RRIRFRPPRLPRPRPRPYAVPRP, the “shrunken log2 fold change” value is -0.419. The figure for RRIRNRPPRLPRPRPRPVAIPRP is -0.507; for RRIRKRPPRLPRPRPRPGEPPRP it is 0.305; for RRIRCRPPRLPRPRPRPKCKPRP it is 0.0809. The figure for RRIRNRPPRLPRPRPRPYAYPRP is -0.533; for RRIRPRPPRLPRPRPRPWDGPRP it is -0.0681.

For the sequence RRIRDRPPRLPRPRPRPFLNPRP, the “shrunken log2 fold change” value was -0.243. The figure for RRIRKRPPRLPRPRPRPHSIPRP is 0.124. The figure for RRIRERPPRLPRPRPRPKSRPRP is 0.0203; for RRIRNRPPRLPRPRPRPFQFPRP it is -0.0984; for RRIRMRPPRLPRPRPRPMFPPRP it is 0.164. The figure for RRIRMRPPRLPRPRPRPSFLPRP is -0.121.

Consider RRIRQRPPRLPRPRPRPRYSPRP, for which the “shrunken log2 fold change” value was -0.192. The figure for RRIRDRPPRLPRPRPRPAQLPRP is -0.0667; for RRIRGRPPRLPRPRPRPVKAPRP it is 0.659. Consider RRIRERPPRLPRPRPRPWMIPRP, for which the “shrunken log2 fold change” value was -0.616. The figure for RRIRIRPPRLPRPRPRPHTAPRP is 0.055. As for RRIRARPPRLPRPRPRPTCHPRP, the “shrunken log2 fold change” value is 0.427. For RRIRSRPPRLPRPRPRPAIKPRP, the “shrunken log2 fold change” value was -0.352.

Turning to RRIRLRPPRLPRPRPRPNPVPRP, the “shrunken log2 fold change” value was determined as 0.0363.

With RRIRSRPPRLPRPRPRPTQNPRP, the “shrunken log2 fold change” value worked out at 0.375. The figure for RRIRYRPPRLPRPRPRPDGDPRP is 0.00902.

For the sequence RRIRLRPPRLPRPRPRPCYGPRP, the “shrunken log2 fold change” value is -0.0306. Regarding RRIRCRPPRLPRPRPRPMALPRP, the “shrunken log2 fold change” value was -0.0797. The figure for RRIRNRPPRLPRPRPRPCWFPRP is -0.00192.

For the sequence RRIRTRPPRLPRPRPRPSGRPRP, the “shrunken log2 fold change” value was 0.0348. The figure for RRIRSRPPRLPRPRPRPVPEPRP is 0.563; for RRIRKRPPRLPRPRPRPSYQPRP it is -0.52. The figure for RRIRYRPPRLPRPRPRPTDQPRP is -0.175; for RRIRSRPPRLPRPRPRPQVRPRP it is 0.0563. Turning to RRIRWRPPRLPRPRPRPTWPPRP, the “shrunken log2 fold change” value is 0.466. The figure for RRIRLRPPRLPRPRPRPHDEPRP is 0.0746; for RRIRERPPRLPRPRPRPNIMPRP it is -0.444; for RRIRHRPPRLPRPRPRPWPGPRP it is -0.327.

As for RRIRSRPPRLPRPRPRPPHFPRP, the “shrunken log2 fold change” value amounted to 0.503. The figure for RRIRDRPPRLPRPRPRPNREPRP is -0.00168; for RRIRCRPPRLPRPRPRPYLHPRP it is -1.18. The figure for RRIRHRPPRLPRPRPRPWWHPRP is -0.113; for RRIRYRPPRLPRPRPRPMRAPRP it is 0.605.

Take RRIRSRPPRLPRPRPRPTQDPRP: the “shrunken log2 fold change” value amounted to 0.445. As for RRIRGRPPRLPRPRPRPLTKPRP, the “shrunken log2 fold change” value worked out at 0.664. The figure for RRIRSRPPRLPRPRPRPAVNPRP is 0.0811; for RRIRRRPPRLPRPRPRPHICPRP it is -0.0887; for RRIRPRPPRLPRPRPRPKIMPRP it is -0.437.

As for RRIRDRPPRLPRPRPRPGFNPRP, the “shrunken log2 fold change” value is 0.125. With RRIRVRPPRLPRPRPRPLRSPRP, the “shrunken log2 fold change” value turned out to be 0.132.

For RRIRHRPPRLPRPRPRPDNIPRP, the “shrunken log2 fold change” value is -0.207. The figure for RRIRCRPPRLPRPRPRPWSKPRP is -0.498. For the sequence RRIRIRPPRLPRPRPRPNFDPRP, the “shrunken log2 fold change” value is 0.235. The figure for RRIRTRPPRLPRPRPRPFKYPRP is -0.114; for RRIRKRPPRLPRPRPRPYIPPRP it is -0.651. On to RRIRHRPPRLPRPRPRPPFDPRP, for which the “shrunken log2 fold change” value was -0.178. The figure for RRIRNRPPRLPRPRPRPSYQPRP is -0.75; for RRIRRRPPRLPRPRPRPIHVPRP it is 0.03. In the case of RRIRKRPPRLPRPRPRPWCKPRP, the “shrunken log2 fold change” value was -0.188. The figure for RRIRWRPPRLPRPRPRPDWDPRP is 0.243; for RRIRCRPPRLPRPRPRPTHHPRP it is 0.126. The figure for RRIRGRPPRLPRPRPRPYIWPRP is -0.107; for RRIRPRPPRLPRPRPRPNWPPRP it is 0.0357; for RRIRMRPPRLPRPRPRPNHTPRP it is -0.213. Turning to RRIRDRPPRLPRPRPRPDPCPRP, the “shrunken log2 fold change” value is -0.0187.

With RRIRTRPPRLPRPRPRPYIRPRP, the “shrunken log2 fold change” value is -1.31.

RRIRYRPPRLPRPRPRPIPCPRP: the “shrunken log2 fold change” value was -0.156. The figure for RRIRFRPPRLPRPRPRPLPCPRP is -0.199. The figure for RRIRHRPPRLPRPRPRPYTAPRP is -0.735. In the case of RRIRPRPPRLPRPRPRPCVRPRP, the “shrunken log2 fold change” value amounted to 0.14. The figure for RRIRDRPPRLPRPRPRPTSNPRP is 0.24.

RRIRERPPRLPRPRPRPHKMPRP: the “shrunken log2 fold change” value is -0.701. The figure for RRIRTRPPRLPRPRPRPRRNPRP is 0.125.

Take RRIRERPPRLPRPRPRPRDWPRP: the “shrunken log2 fold change” value is 0.311.

For RRIRCRPPRLPRPRPRPDCAPRP, the “shrunken log2 fold change” value was determined as 0.515. For the sequence RRIRCRPPRLPRPRPRPFILPRP, the “shrunken log2 fold change” value is -0.898. The figure for RRIRKRPPRLPRPRPRPRCAPRP is 0.568; for RRIRGRPPRLPRPRPRPQMYPRP it is 0.0854; for RRIRGRPPRLPRPRPRPSMTPRP it is 2.35. The figure for RRIRWRPPRLPRPRPRPRMQPRP is 0.329. The figure for RRIRIRPPRLPRPRPRPIATPRP is -0.471.

On to RRIRPRPPRLPRPRPRPDFVPRP, for which the “shrunken log2 fold change” value was -0.107.

For the sequence RRIRSRPPRLPRPRPRPEDRPRP, the “shrunken log2 fold change” value turned out to be 0.972. The figure for RRIRLRPPRLPRPRPRPPNYPRP is -0.23; for RRIRKRPPRLPRPRPRPFDWPRP it is 0.243. The figure for RRIRKRPPRLPRPRPRPQWKPRP is 0.17; for RRIRTRPPRLPRPRPRPAVKPRP it is 0.106. The figure for RRIRNRPPRLPRPRPRPHFQPRP is 0.0313.

The values are drawn from the supplement of paper PMC9112550, “Optimization of the antimicrobial peptide Bac7 by deep mutational scanning” (BMC Biology, 2022).
